Several values for one entry are separate records, joined by “and”; a condition that tells them apart may be missing. Identical values can stand only once.

The values that follow come from FireProtDB (doi:10.1021/bi034371e).

The conditions of the data set: Spinacia oleracea, pH 7, Thermal, whole UniProt chain shown.
[1] abbreviates: DSC, potassium phosphate 10 mM, reversible: No.
Setting [2] is: DSC, potassium phosphate 10 mM, reversible: Yes, 90%.
Where [3] appears, read: DSC, potassium phosphate 10 mM, reversible: Yes.
The mark [4] stands for this setting: NMR, phosphate 10 mM, reversible: No.

B1: Plastocyanin, chloroplastic wild type, P00289 (protein)
chain: MATVASSAAVAVPSFTGLKASGSIKPTTAKIIPTTTAVPRLSVKASLKNVGAAVVATAAAGLLAGNAMAVEVLLGGGDGSLAFLPGDFSVASGEEIVFKNNAGFPHNVVFDEDEIPSGVDAAKISMSEEDLLNAPGETYKVTLTEKGTYKFYCSPHQGAGMVGKVTVN
In the case of B1, the Tm is, setting by setting: under setting [1], 67.8 °C and 67.2 °C; under setting [2], 71 °C; under setting [3], 71.2 °C; under setting [4], 67.9 °C. Further, the “unfolding enthalpy (van 't Hoff)” value is, setting by setting: under setting [1], 84.6 kcal/mol and 84.1 kcal/mol; under setting [2], 85.6 kcal/mol; under setting [3], 82 kcal/mol; under setting [4], 115 kcal/mol. Under setting [3], the “unfolding enthalpy (calorimetric)” value was found to be 118 kcal/mol.
